Measurements taken from paper doi:10.1101/2024.07.16.603632.
Each block holds one binder with its values, some of them ahead of it.

Molecular target: fluorescently labeled isolated Grb2 C-SH3 domain
Test: fluorescence polarisation; fluorescence anisotropy; PTP1B titrated into a solution of N-terminally fluorophore-labelled Grb2 construct; N = 2–4 independent titrations

- Kd: 82.4 µM
B1: PTP1B^1−401 (domain or fragment)
chain: MEMEKEFEQIDKSGSWAAIYQDIRHEASDFPCRVAKLPKNKNRNRYRDVSPFDHSRIKLHQEDNDYINASLIKMEEAQRSYILTQGPLPNTCGHFWEMVWEQKSRGVVMLNRVMEKGSLKCAQYWPQKEEKEMIFEDTNLKLTLISEDIKSYYTVRQLELENLTTQETREILHFHYTTWPDFGVPESPASFLNFLFKVRESGSLSPEHGPVVVHCSAGIGRSGTFCLADTCLLLMDKRKDPSSVDIKKVLLEMRKFRMGLIQTADQLRFSYLAVIEGAKFIMGDSSVQDQWKELSHEDLEPPPEHIPPPPRPPKRILEPHNGKCREFFPNHQWVKEETQEDKDCPIKEEKGSPLNAAPYGIESMSQDTEVRSRVVGGSLRGAQAASPAKGEPSLPEKDEDH

- Kd: 62 µM
B2: PTP1B^1−321 (wild-type protein tyrosine phosphatase 1B, residues 1-321) (domain or fragment)
chain: MEMEKEFEQIDKSGSWAAIYQDIRHEASDFPCRVAKLPKNKNRNRYRDVSPFDHSRIKLHQEDNDYINASLIKMEEAQRSYILTQGPLPNTCGHFWEMVWEQKSRGVVMLNRVMEKGSLKCAQYWPQKEEKEMIFEDTNLKLTLISEDIKSYYTVRQLELENLTTQETREILHFHYTTWPDFGVPESPASFLNFLFKVRESGSLSPEHGPVVVHCSAGIGRSGTFCLADTCLLLMDKRKDPSSVDIKKVLLEMRKFRMGLIQTADQLRFSYLAVIEGAKFIMGDSSVQDQWKELSHEDLEPPPEHIPPPPRPPKRILEPHN
